According to paper PMC8649778:

Columns and labels:
[1] = biological target: APRc_(110–231)(D140N)His, active site mutant of the soluble domain of APRc (UniProt Q92FY8); test: shift of migration in nonreducing SDS-PAGE with Western blot
human IgG (human) = test: BLI

Substance: APRc_(110–231)(D140N)His, active site mutant of the soluble domain of APRc (from UniProt Q92FY8 110-231) (domain or fragment)
- stoichiometry N [1]: 2

Substance: APRc_(110–231)His, soluble domain of APRc fused to a C-terminal His tag (from UniProt Q92FY8 110-231) (domain or fragment)
- Kd (human IgG (human)): 12.6 µM
